The results in this text go back to the DeepSol protein solubility set.

The series in a line: soluble on expression in E. coli; label from the status in PepcDB or PDB records.
“MQPDVSFAPDVSFVIASYNAEATLDRAIASAIAQKGVSVEIIVVDDQSRDATLDVARAYPGDIVRVVALAKNRGPGGARNAGLDVARGRWIAVLDSDDAVFPGRLAAMISRAEKADAQIAVDNLQVIREDGVVEDAMFPRQYLEGLREISLATYIAGNVVFESKFNLGYLKPIFQRRFLDENRLRYDEQLRIGEDYILFAEALAKGGRCVVEPAIGYAYHIRSGSISRVLELHHVEAMRKADAVFAQTHRMDEAAQVAFARRGRSLRKAASFLAMVQHIKARSPLKAIRTALSDPAAVRHMGMPIAVRLRRVAAQFAVGAGRLEHHHHHH”: the “soluble on expression in E. coli” value is reported as “soluble”.

For “MQQRMGAMPMAVLYPQSYLPHSAVPCPAPGYGNMFSGYGAAPVMMMVAGNAPYPVNAHFGHSATPMYFAMDPANSAAPMAVVADAASVCATPKAKLAHSGSGNSLSTQSCCSGGETPSLLSRSAASSTVKQRPHHDVNVWGFALVDQLHPSLQRIPVPLSCLHEPTMGISLYDNNVMSSSTRPCKSSVCLLHAQGLGCAEGSRCRCFHVSSAYLMQCRATSESLCCALHNCYYSQEMLGANCAPHVSGRCYALSLDDASKFPQDGEKPYLINLSLLNLSLTVGLETLPCVNSVYVVSWKKHVCRLSMDGLCKWTKDCGHIHVCRQLTRFLQDAETLSIVKTLQERTRPKSSAELYRDIILSENTLRYVRSVAALSLVAALLEAGDVEALKTLARAKCALLPSQSEALQKLGIALSGSDSTRSVTVSPKLLALLTPKGTN”, the “soluble on expression in E. coli” value was “not soluble”.

In the case of “MQREDDPDAYDVIWASNGTLYFTPGFKYNTPPYPANQRVLATTDNIALTNYLRQEYNKLKESEGTPTLNDIINGFGFCYNDSSNGAGLDGTYLTVSGMLDNKYRLQLLGQYNGSNWLAYRTRNGDEQSWNPWHKVLTDNINAAISARHQYTSSSYPQIYGNGILQLGGDSRNEYGVVLRSNGTDEANAFRPSVNAGTTGHLYLGVANQKWRAVFAQNGTIQTSDRNAKHDITDLDPEKITAFIMGLKPSSYVFNDADSGRTHWGLISQDIEELFPQLGMTSMDFAGFIKSPKTEDYYEDVPETVTDEETGEEKTVTRKELKTRTVEGEYIYSLRYDEFIAPLICMVQRQQRQIEYLERRLSASESKEEAKLEHHHHHH”, the “soluble on expression in E. coli” value is given as “soluble”.

For “MQRIPCVLMRGGTSKGPFFHAWDLPANVVERDELLINLMGSGHELEIDGIGGGSPQTSKVAIISPSLHADADVDYLFVQVMVAQRRVDTAPNCGNMLCAVGPFAIEQGLVKGQEGKTLVRIRNLNTGTFVNSLVETPGGIVRYEGRTAIDGVPGTAAPVHLTFLDAVGSKTGKLFPTGKAQDVIDGVPVTCIDMAMPMMVVEASQLGVSGSETPAQLDANSALLERLEALRLKAGKAMGLGDVSGMVIPKPVLVSKPRYDGTLQVRYFMPHNCHRALAITGAVGLATACVSPGTVIADLLGEGAQQLAQVRLEHPSGGIDVALTRSGAEGQTIQASVVRTARRLFSGFVYAPTFRRLAGLEHHHHHH”, the “soluble on expression in E. coli” value is “soluble”.

Turning to “MQRMNFSSLIETFAVDFQLVLPSVEGAGKYIHGEWFPTNEEPKTVSGAIIPYDNRTIYQSGGTLTSSDRQLAYVGSIPLGSKIIDMGKEYKVESEEPYAEHYADVNLYRLKAVTNNAAN”, the “soluble on expression in E. coli” value was “not soluble”.

As to “MQRRGQLSRRLVNSADRDPSDENSLSRAPAPACTSRGTHVVETTSLKRHSKVLRSQDASGTAESVNSQTPDDEVDHTLWTLVREVSDAEAAFWALRNDSRLLGFVLRSQLLALVHDDSSVTDFLEAAQQPTDVGDVQAEFILCWVPVPGGPAILWRADYQRLIEEQVARRLSELEDPARKAALWGTTREQVERDTHIRAADGSCWLRTLPCPPSVIRALTQGQKALVQQVKRMGRYGRLPLHRAELLRLSRTCFSARFHILDAVGCGTLALDAQNTLSKEPYLCLPEVRTTNIVDSGEIGF”, the “soluble on expression in E. coli” value is “not soluble”.

For the sequence “MQRYFVEEKYVNETSIRIVGDDVHHIARVMRMSAGDHIYCCVNGKTAVCSIDEITSEFINTAIVEWVEASSELPVFVTIASGLPKGDKLELIFQKGTELGAAAFLPFQASRSIVKWDAKKADKKVERLRKIVKEAAEQSHRSEIPEVHAPASFKQLLSMSGEYDTCLVAYEEEAKQGEKSNFAKALTTMKPGQKLLIVFGPEGGLAEEEITALREHKFVPCSLGPKNFKNRNGAVIRVKCCFVSF”, the “soluble on expression in E. coli” value is listed as “not soluble”.

As to “MQRYKLPVSVLVVIYTADLQVLLLERADHPGYWQSVTGSQDPGETLLQTAVREVREETGLNTDDYVLSDWQIQNRYEIFEEWNWRYPPGTTHNTEHVFGLELPKTIPAVVSSREHLGYVWLPWREAAEKVFSSSNACAIRMLASKRKSENSR”, the “soluble on expression in E. coli” value is “not soluble”.

As for “MQSAYSFLPQVIAHRGSSGQAPENTLASLHLAGQQGIKWVEIDVMLSGDGIPVIFHDDYLSRTTDGDGLIYKTPLAELKQLDAGSWKGQEYQQETIPTLLEAIEVISQYGMGLNLELKPCEGLEEETIAASVEVLKQHWPQDLPLLFSSFNYFALVSAKALWPEIARGYNVSAIPSAWQERLEHLDCAGLHIHQSFFDVQQVSDIKAAGYKVLAFTINDESLALKLYNQGLDAVFSDYPQKIQSAIDSHIN”, the “soluble on expression in E. coli” value is reported as “soluble”.

“MQSVDVAIVGGGMVGLAVACGLQGSGLRVAVLDHVVPQPLANDASPQLRVSAINAASEKLLTRLGVWSNIVARRASCYHGMEVRDKDSFGRITFDDASMGYSHLGHIVENSVIHYALWQKAQQAADITLMAPAELQQVAWGENDAFLTLKDGAMLTARLVIAADGANSWLRNKADIPLTFWDYRHHALVATIRTEEPHGAVARQVFHGEGILAFLPLSDPHLCSIVWSLSPQDAERMQQSGDEAFNQALTIAFDNRLGLCRLESERQVFPLTGRYARQFAAHRLALVGDAAHTIHPLAGQGVNLGFMDAAELVDNLRRLQRQGKDIGQHLYLRRYERSRKHSAAMMLAGMQGFRDLFAGENPAKKLLRDIGLKLADTLPGVKPQLLRQAMGLNDLPQWLRLEHHHHHH”: the “soluble on expression in E. coli” value was “not soluble”.

Take “MQTVGVHSIVQQLHRNSIQFTDGYEVKEDIGVGSYSVCKRCIHKATNMEFAVKIIDKSKRDPTEEIEILLRYGQHPNIITLKDVYDDGKYVYVVTELMKGGELLDKILRQKFFSEREASAVLFTITKTVEYLHAQGVVHRDLKPSNILYVDESGNPESIRICDFGFAKQLRAENGLLMTPCYTANFVAPEVLERQGYDAACDIWSLGVLLYTMLTGYTPFANGPDDTPEEILARIGSGKFSLSGGYWNSVSDTAKDLVSKMLHVDPHQRLTAALVLRHPWIVHWDQLPQYQLNRQDAPHLVKGAMAATYSALNRNQSPVLEPVGRSTLAQRRGIKKITSTAL”: the “soluble on expression in E. coli” value is reported as “soluble”.

For the sequence “MQVDYQQLNGIALAYLGDAVYEPFIRQHLIESGFTKATKLHHHATHYVSAKAQAALIERMQAEEVLTPTEVDVFKRGRNAKSHTSAKHTDVVTYRISTGFEAVFGYLQLTQQADRIAELAQWCIKQVDEGRVSSVKLEHHHHHH”, the “soluble on expression in E. coli” value is on record as “soluble”.

On to “MQVIVGHSSTRLPENNENGHTHKWTLFVKPGNRDYDEFPDNKLIQKVKFEIHESFAQPVRFVTKPPFKITETGFASFTTLVTIFLNLPNEKPRTIPYELTLFTGDQDVQLETQKLVVQKDVPPAYLELIKKYARTKKRKASLISNDEKSPSRKMHKITPVKEEESSQKMSKSKEKGVPIPKIDIEIEKASPKKEKKEKVKSPEELTRRLNECTDSHVIYKASEYLLTLPDTKLSQTTLKLSFDLSRCDSTTLMDIGRILKGKKAKK”, for which the “soluble on expression in E. coli” value is given as “not soluble”.

Take “MQVKILDTTLRDGEQTPGVSLSVEQKVMIAEALDNLGVDIIEAGTAIASEGDFQAIKEISQRGLNAEICSFARIKREDIDAAADAGAESIFMVAPSSDIHINAKFPGKDRDYVIEKSVEAIEYAKERGLIVEFGAEDASRADLDFVIQLFKRAEEAKADRITFADTVGVLSPEKMEEIVRKIKAKVKLPLAIHCHDDFGLATANTIFGIKAGAEEFHGTINGLGERAGNAAIEEVVIALEYLYGIKTKIKKERLYNTSKLVEKLSRVVVPPNKPIVGDNAFTHESGIHTSALFRDAKSYEPISPEVVGRKRVIVLGKHAGRASVEAIMNELGYKATPEQMKEILARIKEIGDKGKRVTDADVRTIIETVLQIKREKKVKLEDLAIFSGKNVMPMASVKLKIDGQERIEAAVGLGPVDAAINAIRRAIKEFADIKLVSYHVDAITGGTDALVDVVVQLKKDNKIVTARGARTDIIMASVEAFIEGINMLF”: the “soluble on expression in E. coli” value is recorded as “not soluble”.

Regarding “MQVKLGFTEHSFNLIVSSTSMFKNLLASVGIGAAKVDTRLFNNSVIPGGILEGEVYIRGGDVAQDIQDIYLKLATEYQREVDDSTVTEECVMVNYRLLEHLTIQPKEEVVIPFSLNLPDEMPLTFGHIPVYVRTGLDIKSAINPRDRDYLEVRTHPLMQRVLLAIEHLGFHLHKVDCEYTHYFGGAYPFVQELEFRPTGKYRHSLDELEVVFRLTADQLEVLLEIDKRARGWKGWLEEAFDIDERYARLIVKQSDLYETDVEALIDQIIQSHLS”, the “soluble on expression in E. coli” value was “not soluble”.

As to “MQVNIILLAAGKGQRFQSSSPNKIGCATIKQLARINDKPLIVHSIDKLQPLLKNAYVHNFFVTLGANKNAIQTVLPQDISVIASQHWAEGMGHTLAESVHSIKATSSHVLVALADQALITTEHYQELLSASKEQPNKIIATLCEGQLMAPAIFPEKYFPLLVKIQGDKGAGKLLLQHAKKADAITCEDAKIDIDTFSDLERVRQHLEYALQDNQQSSL”, the “soluble on expression in E. coli” value is “not soluble”.

In the case of “MQVSVRDNNVDQALRALKKKLQREGVFREMKLKQHFEKPSEKKAREKAEAIRRARKLARKKAQREGMLLEHHHHHH”, the “soluble on expression in E. coli” value is recorded as “not soluble”.

As for “MQWRRCKVITRDFLMNADCKTAFGAIEESLLWSAEQRAASLAATLACRPDEGPVWIFGYGSLMWNPALEFTESCTGTLVGWHRAFCLRLTAGRGTAHQPGRMLALKEGGRTTGVAYRLPEETLEQELTLLWKREMITGCYLPTWCQLDLDDGRTVNAIVFIMDPRHPEYESDTRAQVIAPLIAAASGPLGTNAQYLFSLEQELIKLGMQDDGLNDLLVSVKKLLAENYPDGVLRPGFALEHHHHHH”, the “soluble on expression in E. coli” value is on record as “not soluble”.

Consider “MRCPWRKTRRHSDNGWYGPRNQIRPDDHRLHRKVRKSRGDSRRAGNGSPRARCFEGAQRRGKSDGLSECGRMKNLLEMVELVRGKRMKIAVGAAEDEEVLKAVARAKEEEIVDPVLFGKRKDIETLVERMNLELEAEIVHVEDPFEAVRKAVESVSRNETQILMKGKIKTSDLFSVFLKKEYGLRTGRTLSAVSVHEVPGYHKILIISDGGLVISPNLQQRMDIVENSILVARALGIEKPKIALLGTGDLKSPLTLEIAALSKIFQQRNDCIVDGPLTLDLAISEELASKAGNSPVAGDADILIVPSIETGNILSKSLVYMARGRAAIVVVGGRVPVVLTSRADDEETRFLSIALSVLVAQKKG”, for which the “soluble on expression in E. coli” value is reported as “soluble”.

Consider “MRDAEKTVGNMIDKLKTAFIGSIDSEGFPNMKAMLQPRKREGIKTIYLTTNTSSMRVAQYRENNHACIYFCDTRFFRGVMLRGTMEVLTDPASKEMIWQEGDTMYYPEGVTDPDYCVLKFTAISGRFYSNFKSESFAVE”, for which the “soluble on expression in E. coli” value was “not soluble”.

On to “MRDIVFIERDPYAPIRHCYTVSKILYQGKSPYQEIQVIESPEFGRMLILDGVVQLDEKYEFLYHEYLAHVPLHAHPNPRNVLIIGGGDGGTLREVLKHDIVERAVLVDIDKEVIEVSKKYLPTLSVGFQDPRAIVVNEDGYKYVQDYENEFDVIIVDSTDPVGFAHVLTTEDFFRHVYKALKEDGIFVAQTESIHYHLEMVSNIQQRLKKVFPIVDLYTSVIPIYAGYWWTFSIASKKYPVRTPAREVKVQTKIYDADMHEYAFLPESFYNKIVNGEYKYLEHHHHHH”, for which the “soluble on expression in E. coli” value was “not soluble”.
